Laboratory results published in patent US20050277581A1.
Several values for one entry are separate records, joined by “and”; a condition that tells them apart may be missing. Equal values may be shown once.

How the values were obtained:
[1] = target: N,N′-diacetyl-Lys-D-Ala-D-Ala (Sigma D-9904, fw 372.4); experiment: ITC, 37 C, no HSA
human serum proteins = experiment: cell-based or functional assay
mouse serum proteins = experiment: cell-based or functional assay
[2] = target: N,N′-diacetyl-Lys-D-Ala-D-Ala (Sigma D-9904, fw 372.4); experiment: ITC, 25 C, 104 µM HSA present
[3] = target: N,N′-diacetyl-Lys-D-Ala-D-Ala (Sigma D-9904, fw 372.4); experiment: ITC, 25 C, 288 µM HSA present
[4] = target: N,N′-diacetyl-Lys-D-Ala-D-Ala (Sigma D-9904, fw 372.4); experiment: ITC, 25 C, 430 µM HSA present
[5] = target: N,N′-diacetyl-Lys-D-Ala-D-Ala (Sigma D-9904, fw 372.4); experiment: ITC, 25 C, 601 µM HSA present
[6] = target: N,N′-diacetyl-Lys-D-Ala-D-Ala (Sigma D-9904, fw 372.4); experiment: ITC, 37 C, 482 µM HSA present
bovine albumin (bovine) = bovine albumin (bovine) (UniProt P02769); experiment: ITC, protein injected into dalbavancin
bovine albumin (bovine), sequence (P02769 25-607 limits assumed): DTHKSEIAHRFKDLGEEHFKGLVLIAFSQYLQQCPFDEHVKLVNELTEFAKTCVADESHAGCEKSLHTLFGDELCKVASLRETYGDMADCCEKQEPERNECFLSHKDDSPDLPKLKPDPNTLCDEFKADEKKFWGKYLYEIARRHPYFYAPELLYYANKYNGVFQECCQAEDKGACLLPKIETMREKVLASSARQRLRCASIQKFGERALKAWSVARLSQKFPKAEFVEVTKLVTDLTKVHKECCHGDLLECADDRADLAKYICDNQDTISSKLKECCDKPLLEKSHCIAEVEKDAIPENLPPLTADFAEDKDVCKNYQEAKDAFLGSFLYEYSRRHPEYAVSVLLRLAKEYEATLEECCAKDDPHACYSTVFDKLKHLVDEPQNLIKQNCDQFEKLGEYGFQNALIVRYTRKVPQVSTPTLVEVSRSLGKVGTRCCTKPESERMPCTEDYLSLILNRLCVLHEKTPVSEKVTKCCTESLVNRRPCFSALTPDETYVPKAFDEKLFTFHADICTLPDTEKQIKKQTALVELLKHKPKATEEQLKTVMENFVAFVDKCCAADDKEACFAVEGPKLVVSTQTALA

dog albumin (dog) = dog albumin (dog) (UniProt P49822); experiment: ITC, protein injected into dalbavancin
dog albumin (dog), sequence (P49822 25-608 limits assumed): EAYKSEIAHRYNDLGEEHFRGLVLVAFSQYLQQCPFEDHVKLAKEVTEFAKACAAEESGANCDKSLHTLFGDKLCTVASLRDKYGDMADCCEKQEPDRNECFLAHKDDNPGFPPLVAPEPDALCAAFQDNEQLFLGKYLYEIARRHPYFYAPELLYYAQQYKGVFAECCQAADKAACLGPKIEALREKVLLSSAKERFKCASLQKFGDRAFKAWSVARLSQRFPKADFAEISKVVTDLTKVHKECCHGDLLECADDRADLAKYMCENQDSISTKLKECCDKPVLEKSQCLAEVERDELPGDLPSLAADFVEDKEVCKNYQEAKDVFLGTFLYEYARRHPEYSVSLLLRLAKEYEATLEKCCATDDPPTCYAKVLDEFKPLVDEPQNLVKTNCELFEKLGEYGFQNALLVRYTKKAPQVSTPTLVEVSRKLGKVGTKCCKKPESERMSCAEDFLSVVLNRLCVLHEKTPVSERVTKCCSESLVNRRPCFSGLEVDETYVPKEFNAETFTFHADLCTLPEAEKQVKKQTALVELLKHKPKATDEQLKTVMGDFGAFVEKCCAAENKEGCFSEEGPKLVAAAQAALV

[7] = target: human α-glycoprotein (human) (UniProt P02763); experiment: ITC, protein injected into dalbavancin
human α-glycoprotein (human), sequence (P02763 19-201): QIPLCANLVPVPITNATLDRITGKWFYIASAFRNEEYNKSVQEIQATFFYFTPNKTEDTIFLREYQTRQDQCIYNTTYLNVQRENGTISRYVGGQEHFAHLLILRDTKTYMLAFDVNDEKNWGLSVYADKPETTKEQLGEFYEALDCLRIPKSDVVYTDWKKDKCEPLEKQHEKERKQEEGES

rat albumin (rat) = rat albumin (rat) (UniProt P02770); experiment: ITC, protein injected into dalbavancin
rat albumin (rat), sequence (P02770 25-608 limits assumed): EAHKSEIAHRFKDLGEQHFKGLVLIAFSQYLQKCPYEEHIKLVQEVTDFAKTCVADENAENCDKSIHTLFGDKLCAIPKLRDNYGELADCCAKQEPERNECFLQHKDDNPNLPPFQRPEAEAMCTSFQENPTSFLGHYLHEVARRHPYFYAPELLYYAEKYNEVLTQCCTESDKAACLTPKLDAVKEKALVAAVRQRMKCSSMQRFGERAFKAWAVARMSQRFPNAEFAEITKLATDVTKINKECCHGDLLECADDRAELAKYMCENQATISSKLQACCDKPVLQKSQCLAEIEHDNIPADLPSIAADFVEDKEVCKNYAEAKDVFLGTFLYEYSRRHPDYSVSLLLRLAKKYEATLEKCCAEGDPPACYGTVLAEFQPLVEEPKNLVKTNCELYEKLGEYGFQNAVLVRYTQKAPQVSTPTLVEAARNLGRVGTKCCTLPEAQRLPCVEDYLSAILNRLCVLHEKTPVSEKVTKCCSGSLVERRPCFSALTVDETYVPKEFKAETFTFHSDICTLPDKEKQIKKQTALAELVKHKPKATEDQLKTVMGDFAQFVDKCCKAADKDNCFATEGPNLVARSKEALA

[8] = target: human albumin (HSA; Sigma A-3782; mw 69,366) (human) (UniProt P02768); experiment: calculated from ITC Ka, dalbavancin 1-500 µM
[9] = target: N,N′-diacetyl-Lys-D-Ala-D-Ala (Sigma D-9904, fw 372.4); experiment: ITC, 25 C, non-competitive binding model (KL)
[10] = target: N,N′-diacetyl-Lys-D-Ala-D-Ala (Sigma D-9904, fw 372.4); experiment: ITC, preliminary experiments, no serum proteins
[11] = target: N,N′-diacetyl-Lys-D-Ala-D-Ala (Sigma D-9904, fw 372.4); experiment: ITC, 10 C, no HSA
[12] = target: N,N′-diacetyl-Lys-D-Ala-D-Ala (Sigma D-9904, fw 372.4); experiment: ITC, 25 C, no HSA
[13] = target: N,N′-diacetyl-Lys-D-Ala-D-Ala (Sigma D-9904, fw 372.4); experiment: ITC, 25 C, 513 µM HSA present

Row | N [1] | degree of binding in human serum estimated from MIC difference (human serum proteins) | degree of protein binding estimated from MIC difference (mouse serum proteins) | N [2] | N [3] | N [4] | N [5] | N [6] | N (moles of protein per dalbavancin) (bovine albumin (bovine)) | N (moles of protein per dalbavancin) (dog albumin (dog)) | N (moles of protein per dalbavancin) [7] | N (moles of protein per dalbavancin) (rat albumin (rat)) | percent bound [8] | Kd [9] | Kd [10] | N [11] | N [12] | N [13] | Substance
1 | 0.82 | 96% | 99.6% | 1.38 | 0.9 | 1.24 | 0.86 | 0.179 | < 1 | < 1 | < 1 | < 1 | > 98% | 3 µM | 10 µM |  |  |  | Dalbavancin (peptide)
2 |  |  |  |  |  |  |  |  |  |  |  |  |  |  |  | 1.1 | 0.91 and 0.97 | 1.05 | Vancomycin hydrochloride (Sigma V-2002, fw 1485.7) (peptide)
